Measurements from the supplement of paper PMC7125110.
± gives the standard error. For some assays here: Fewer inactive variants are shown than the library holds.

B1: glmS ribozyme (parent)
chain: AUAAAAGCGCCAGAACUACAGAAAUGUAGUUGACGAGGAGGAGGUUUAUCGAAUUUUCGGCGGAUGCCUCCAAA

Tests used:
Conditions in all cases: with glucosamine-6-phosphate
glucosamine-6-phosphate [1] = variants of: B1; experiment: kcat; higher = faster cleavage; RNA array
Method in brief: (§1)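 Sequenced MiSeq chips were the platform: E. coli RNA polymerase transcribed barcoded ribozyme variants on them in situ, and a hybridised Cy3 probe tracked these at 37 °C. After glucosamine-6-phosphate (40 μM to 10 mM) in HEPES/KCl/Mg(OAc)2 buffer was flowed in, tiles were imaged over ~14 h. Signals normalised to baseline and to non-cleaving reference variants were reduced to per-tile medians and fit to one- or two-exponential decays to obtain kobs. kcat and KM were derived through weighted Michaelis–Menten fits across concentrations.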

glucosamine-6-phosphate [2] = variants of: B1; experiment: KM; higher = weaker cofactor use; RNA array
Method in brief: as §1

glucosamine-6-phosphate [3] = variants of: B1; experiment: self-cleavage kobs at 160 uM GlcN6P; higher = faster cleavage; RNA array
Method in brief: as §1

glucosamine-6-phosphate [4] = variants of: B1; experiment: self-cleavage kobs at 640 uM GlcN6P; higher = faster cleavage; RNA array
Method in brief: as §1

glucosamine-6-phosphate [5] = variants of: B1; experiment: self-cleavage kobs at 2500 uM GlcN6P; higher = faster cleavage; RNA array
Method in brief: as §1

glucosamine-6-phosphate [6] = variants of: B1; experiment: self-cleavage kobs at 10000 uM GlcN6P; higher = faster cleavage; RNA array
Method in brief: as §1

glucosamine-6-phosphate [7] = variants of: B1; experiment: self-cleavage kobs at 40 uM GlcN6P; higher = faster cleavage; RNA array
Method in brief: as §1

Row | Variant | kcat (glucosamine-6-phosphate [1]) [s⁻¹] | KM (glucosamine-6-phosphate [2]) [µM] | self-cleavage kobs at 160 uM GlcN6P (glucosamine-6-phosphate [3]) [s⁻¹] | self-cleavage kobs at 640 uM GlcN6P (glucosamine-6-phosphate [4]) [s⁻¹] | self-cleavage kobs at 2500 uM GlcN6P (glucosamine-6-phosphate [5]) [s⁻¹] | self-cleavage kobs at 10000 uM GlcN6P (glucosamine-6-phosphate [6]) [s⁻¹] | self-cleavage kobs at 40 uM GlcN6P (glucosamine-6-phosphate [7]) [s⁻¹]
1 | A48U U55A | 0.000475 ± 0.0001 | 1310 ± 530 | 4.63e-05 ± 1.3e-05 | 0.000183 ± 2.7e-05 | 0.000269 ± 3.9e-05 | 0.000532 ± 0.0001 | –
2 | A52C U54G G63A | 1.25e-05 ± 2.6e-06 | – | – | – | < 1e-05 | < 1e-05 | –
3 | A53C C68G | < 1e-05 | – | – | – | – | – | –
4 | A52U A53U | 0.000212 ± 8.7e-06 | 4210 ± 360 | – | 2.65e-05 ± 1e-05 | 8.03e-05 ± 1.2e-05 | 0.000148 ± 1.7e-05 | < 1e-05
5 | C50G U57C | 4.02e-05 ± 1.6e-05 | – | 4.88e-05 ± 2e-05 | – | 5.18e-05 ± 1.7e-05 | – | –
6 | U49C C71A | < 1e-05 | – | – | < 1e-05 | – | – | < 1e-05
7 | U49G C70A | 1.52e-05 ± 2.5e-06 | – | – | – | – | – | –
8 | C50G U54A | 3.07e-05 ± 1e-05 | – | 5.21e-05 ± 1.6e-05 | – | 5.55e-05 ± 2.3e-05 | – | 2.88e-05 ± 1.2e-05
9 | A52G C70U C71G | 2.63e-05 ± 1.1e-05 | – | – | – | 4.78e-05 ± 1.9e-05 | – | –
10 | U47G C50A C67U | 4.13e-05 ± 1.8e-05 | – | – | 6.02e-05 ± 2.6e-05 | 7.44e-05 ± 3.1e-05 | – | –
11 | A48U A52G | 1.32e-05 ± 2.9e-06 | – | – | – | – | – | –
12 | A52U C71U | 0.000457 ± 4e-05 | 2130 ± 390 | – | 0.0001 ± 1.4e-05 | 0.000275 ± 2.9e-05 | 0.000362 ± 3.4e-05 | –
13 | A52U C71A | 0.000156 ± 2.6e-05 | – | – | 5.96e-05 ± 1.3e-05 | – | 0.000144 ± 1.6e-05 | < 1e-05
14 | A52U C71G | 9.41e-05 ± 6.3e-06 | 1700 ± 380 | – | 3.14e-05 ± 1.3e-05 | 5.28e-05 ± 9.2e-06 | 8.19e-05 ± 1e-05 | –
15 | A53C U65A C70A C71A | 1.25e-05 ± 4e-06 | – | – | – | – | – | –
16 | A48G U54G | 0.000141 ± 9.6e-06 | 761 ± 180 | – | 6.14e-05 ± 1.1e-05 | 0.000134 ± 2.5e-05 | 0.000127 ± 1.2e-05 | –
17 | A53C U54C | 0.00131 ± 0.00043 | 1870 ± 890 | 9.33e-05 ± 1.9e-05 | 0.000355 ± 6.3e-05 | 0.0011 ± 0.00018 | 0.000805 ± 0.00023 | 2.24e-05 ± 9.7e-06
18 | C50U G63C | < 1e-05 | – | – | – | – | < 1e-05 | –
19 | C50U G63U | 1.75e-05 ± 7.2e-06 | – | – | – | – | – | < 1e-05
20 | C50U G63A | < 1e-05 | – | < 1e-05 | – | – | – | < 1e-05

Row | Variant | kcat (glucosamine-6-phosphate [1]) [s⁻¹] | KM (glucosamine-6-phosphate [2]) [µM] | self-cleavage kobs at 160 uM GlcN6P (glucosamine-6-phosphate [3]) [s⁻¹] | self-cleavage kobs at 640 uM GlcN6P (glucosamine-6-phosphate [4]) [s⁻¹] | self-cleavage kobs at 2500 uM GlcN6P (glucosamine-6-phosphate [5]) [s⁻¹] | self-cleavage kobs at 10000 uM GlcN6P (glucosamine-6-phosphate [6]) [s⁻¹] | self-cleavage kobs at 40 uM GlcN6P (glucosamine-6-phosphate [7]) [s⁻¹]
21 | C50U U65G | < 1e-05 | – | – | – | – | – | < 1e-05
22 | A53U C58G | 9.99e-05 ± 7.2e-06 | 1390 ± 370 | – | 2.6e-05 ± 9.5e-06 | 7.16e-05 ± 1e-05 | 8.57e-05 ± 8e-06 | –
23 | C50A C68A | 3.68e-05 ± 1.1e-05 | – | 3.75e-05 ± 1.4e-05 | – | 4.65e-05 ± 1.7e-05 | – | –
24 | C50A C68G | 5.05e-05 ± 1.7e-05 | – | 6.35e-05 ± 1.2e-05 | 8.11e-05 ± 1.6e-05 | 5.89e-05 ± 1e-05 | – | 2.54e-05 ± 1e-05
25 | C50A C68U | 1.77e-05 ± 3.7e-06 | – | – | – | – | – | –
26 | A53C C71G | 0.00031 ± 7.7e-05 | 1290 ± 620 | 4.25e-05 ± 1.8e-05 | 0.000101 ± 1.6e-05 | 0.000182 ± 3.4e-05 | 0.000335 ± 7.4e-05 | –
27 | A53U G59A | 4.83e-05 ± 6.3e-06 | – | – | – | 3.5e-05 ± 1.2e-05 | 4.2e-05 ± 8.2e-06 | < 1e-05
28 | G51U C71G | 1.29e-05 ± 2.7e-06 | – | – | – | – | – | –
29 | C50G G62C | 2.62e-05 ± 7.9e-06 | – | – | – | – | – | –
30 | C50A G59A | < 1e-05 | – | – | < 1e-05 | – | – | –
31 | A53C G66A | 0.00434 ± 0.0011 | 1670 ± 640 | 0.000292 ± 6.4e-05 | 0.00107 ± 0.00017 | 0.00288 ± 0.00047 | 0.00374 ± 0.00053 | 0.000154 ± 2.2e-05
32 | A52G U65A | 0.00041 ± 0.00018 | – | – | 6.01e-05 ± 1.2e-05 | 0.000103 ± 1.6e-05 | 0.00028 ± 4.3e-05 | –
33 | C50U U55G | 4.41e-05 ± 2.5e-06 | 304 ± 130 | – | 2.74e-05 ± 1.4e-05 | 4.31e-05 ± 7.9e-06 | 4.07e-05 ± 6.8e-06 | –
34 | A53G C58A | 0.000622 ± 7.5e-05 | 2190 ± 460 | 5.7e-05 ± 1.3e-05 | 0.000129 ± 1.6e-05 | 0.00036 ± 4.4e-05 | 0.0005 ± 5.8e-05 | –
35 | A48G C68G | 5.98e-05 ± 7.3e-06 | – | – | 7.32e-05 ± 1.6e-05 | 5.41e-05 ± 1.2e-05 | 5.84e-05 ± 8.1e-06 | 4.65e-05 ± 1.2e-05
36 | A48C C68U | 8.75e-05 ± 8.5e-06 | 1310 ± 540 | – | – | 6.35e-05 ± 1.3e-05 | 7.54e-05 ± 1.1e-05 | < 1e-05
37 | A48U G66U | 2.75e-05 ± 2.7e-06 | – | – | – | – | 2.42e-05 ± 8e-06 | –
38 | U47G U55G | 0.00601 ± 0.0021 | – | – | 0.00195 ± 0.00043 | 0.00249 ± 0.001 | 0.00706 ± 0.0012 | 0.000247 ± 4.9e-05
39 | U47G U55C | 0.00713 ± 0.0025 | 1030 ± 470 | 0.00147 ± 0.00034 | 0.00372 ± 0.00087 | 0.00386 ± 0.0012 | 0.00759 ± 0.0024 | 0.000233 ± 4.3e-05
